Test results published in patent publication US20070219354.

Target: T1, coumarin-CO-REVNFEVEFR
T1 chain: REVNFEVEFR

B1: BACE 1, soluble (transmembrane domain and cytoplasmic extension excluded) human protein produced in a baculovirus expression system (protein)
chain: TQHGIRLPLRSGLGGAPLGLRLPRETDEEPEEPGRRGSFVEMVDNLRGKSGQGYYVEMTVGSPPQTLNILVDTGSSNFAVGAAPHPFLHRYYQRQLSSTYRDLRKGVYVPYTQGKWEGELGTDLVSIPHGPNVTVRANIAAITESDKFFINGSNWEGILGLAYAEIARPDDSLEPFFDSLVKQTHVPNLFSLQLCGAGFPLNQSEVLASVGGSMIIGGIDHSLYTGSLWYTPIRREWYYEVIIVRVEINGQDLKMDCKEYNYDKSIVDSGTTNLRLPKKVFEAAVKSIKAASSTEKFPDGFWLGEQLVCWQAGTTPWNIFPVISLYLMGEVTNQSFRITILPQQYLRPVEDVATSQDDCYKFAISQSSTGTVMGAVIMEGFYVVFDRARKRIGFAVSACHVHDEFRTAAVEGPFVTLDMEDCGYNIPQTDESTLMT
- substrate processed (end point HPLC assay, 2 nM enzyme, 1.0 µM substrate, 30 min): less than 10% of substrate is processed by BACE 1
